Test results taken from the DeepSol protein solubility set.

Assay: soluble on expression in E. coli; label from the status in PepcDB or PDB records

Sequence	soluble on expression in E. coli
MGKTQEFLRLRRIIALSSLLASRKSAMCLAVLALHAIPGLPVLIAANRDEFHARPTAEATRWPGSPAIYAGRDLQAGGTWLGVSDQGRYAVVTNFRDPRNIQPDAPSRGALVEAFLRGAASAQEYLRDVHARGARYNGFNLIVGDAGGAWYCSNRDGAPQRLAAGVYALSNHLLDTPWPKLARTKAAFERIIAATPQPDLAALYAALADPTPAADHELPATGLALERERLLSSPFIVSPDYGTRSACILALHDDGRGELHERRFRPDGAIAGQADLDFPWRAARAELHRASCVLEHHHHHH	not soluble
MEKQYRVLLYYKYVPIEDPEAFREQHLAFCKELGLLGRILVSSEGINGTVSGTVEQTEKYMETMKADPRFADMVFKIDEAEGHAFKKIFVRHKKELVTLRLEDDVDPNETTGQHLKPAEFYEKMQDPNTIVIDARNDYEYDLGHFRGAVRPDIEAFRELPEWIEEHKDMLEGKKILTYCTGGVRCEKFSGWLVKQGFEDVAQLDGGIVTYGKDPEVQGKLWDGQCYVFDERISVPVNRVEHVIVGKDYFTGEPCERYVNCANPSCNKKMICTPENEYKYMRSCSHECRTNPRNLYVKEHNMTEEEVNARLAAIETEDHAAAE	not soluble
MGSDKIHHHHHHMQRARAEQRGRDLVIHLDRPLNQDHLETVSGGQGEFYVDFEVADPRKASVQQRRLFFALLHDIETYFVVPSEFLKSMFYTQYEFYTAGKSISLSDATESSVSDANTLLDLVIDFMFEWRVPFKKGYELLPKEEQYFIYQCCRHRVCIVCGEHADIHHVDVVGRTNRNKIDHSQRHVMALCRAHHSEIESIGSAKFAAKYHVPVTGIKLKIEDLQKLGIRGNYGGD	not soluble
MSLVIITDATEADLDQIFQIETESFEDPYPYSLLRAYLFLANKLYLVAKQREKVVGYIIGIIQYGYRGHIVSIAVEPIYRKQGIGAKLLNEIEERFKLNGARYSYLEVNTNNLSAISFYRANGYLIMYVRKNYYGRDKHAFVMVKNLYEGHHHHHH	soluble
MSLDKPVIKISTENVDLIYRVGDNGRLYQSYLGKRLNHATDIAHLPQGSEAYLTHGMEDYFEPAIHIVHNDGNPSTLLKYVSHTRNQVSPGVDEVVITMQDDKYPVTVKLHYVAYQKENLIKTFTEISHREKKPVQLHKYASSMLHLNRANYFLTEFSGDWASEAHVKEQPLEFGKKTIDTKLGARANMFCSPFFQLALDGKSEENQGEVLVGTLGWTGNFSFVFEVDNKNELRVISGINPYASEYSLKPNEIFRTPDFYFTYSFKGKGQASRNFHDWARKYQVKDGNQTRMTLLNNWEATYFDFDEAKLVKLMDDAVELGVDMFLLDDGWFANKYPRSGDHQGLGDWDETADKLPHGIGYLTEAAKKKGIKFGIWIEPEMVNPKSELYEKHKDWVIHLPNRDEYYFRNQLVLDLSNPKVQDYVFGVVDNLMTKYPDIAFFKWDCNSPITNIYSVYLKDKQSHLYIDYVRGLYNVLERVKAKYPDLPMMLCSGGGGRSDYEALSYFTEFWPSDNTDPIERLFIQWGFSQVFPAKTMCAHVTTWNKNSSVKFRTDVAMMCKLGFDIKLADMSKDDETYCRTAVQNYNRLKPVVLEGDMYRLVSPYGSNHTSTMYVGKDKDKAVVFAFDIHPRYAEKILPVRLQGLDADKMYRVKEINLMPGANSSLSGNGEVFSGEFLMNVGLNLFTTQQLNSRVIEVVAEGHHHHHH	soluble
MPPGKCLFSGVFCNMAEKQTAKRNRREEILQSLALMLESSDGSQRITTAKLAASVGVSEAALYRHFPSKTRMFDSLIEFIEDSLITRINLILKDEKDTTARLRLIVLLLLGFGERNPGLTRILTGHALMFEQDRLQGRINQLFERIEAQLRQVLREKRMREGEGYTTDETLLASQILAFCEGMLSRFVRSEFKYRPTDDFDARWPLIAAQLQ	not soluble
MKQLTVEDAKQIELEILDYIDTLCKKHNINYIINYGTLIGAVRHEGFIPWDDDIDLSMPREDYQRFINIFQKEKSKYKLLSLETDKNYFNNFIKITDSTTKIIDTRNTKTYESGIFIDIFPIDRFDDPKVIDTCYKLESFKLLSFSKHKNIVYKDSLLKDWIRTAFWLLLRPVSPRYFANKIEKEIQKYSRENGQYMAFIPSKFKEKEVFPSGTFDKTIDLPFENLSLPAPEKFDTILTQFYGDYMTLPPEEKRFYSHEFHAYKLEDLEHHHHHH	soluble
SNAMKMSELEKMLKGEHFDGASAEIEALRSQAGRLKLEINQSLDEAERYALQRELFGHLGHKSCVQPPFHCEFGKTIRIGDHTFINMNVVMLDGAPITIGDHVLIGPSTQFYTASHSLDYRRRQAWETICKPIVIEDDVWIGGNVVINQGVTIGARSVVAANSVVNQDVPPDTLVGGTPARILRSLKDPAESMAE	soluble
MSLAIRNVVFDVGNVIVKWAPQDIAQLTFGEGEESAFMATAVFKSEFWRDLNKGKYTEAEVKRALHQQLGLSSDTLEQLFFHIKNTQVLLPGTLQLMDDLLKAGYRLYALTDNVNEIVAYLKKQYGFWPKFTGAVVSSECGLLKPDPAIYQHLADSQRILPQESVFMDDMPANVEGARQQGFHAIQFVDAHQARVQLAQMGLHFKGQHFGEGHHHHHH	soluble
HDNYADLSDTELTTLLRRYNIPHGPVVGSTRRLYEKKIFEYETQRRR	soluble
SQTLRIGYVSSLLYGLLPEIIYLFRQQNPEIHIELIECGTKDQINALKQGKIDLGFGRLKITDPAIRHIVLHKEQLKLAIHKHHHLNQFAATGVHLSQIIDEPMLLYPVSQKPNFATFIQSLFTELGLVPSKLTEIREIQLALGLVAAGEGVCIVPASAMDIGVKNLLYIPILDDDAYSPISLAVRNMDHSNYIPKILACVQEVFATHHIRPLIESILEHHHHHH	soluble
MGSDKIHHHHHHMKTFHLTTQSRDEMVDITSQIETWIRETGVTNGVAIVSSLHTTAGITVNENADPDVKRDMIMRLDEVYPWHHENDRHMEGNTAAHLKTSTVGHAQTLIISEGRLVLGTWQGVYFCEFDGPRTNRKFVVKLLTD	soluble
MSAASTTSTPAAAAVAPQQPESLYRVVQTLGEGAFGEVLLIVNTKNPEVAAAMKKINIANKSKDFIDNIRKEYLLQKRVSAVGHDNVIRMIGMRNDPQFYYLFLEYADGGELFDKIEPDCGMSPVFAQFYFKQLICGLKFIHDNDVVHRDIKPENLLLTGTHVLKISDFGMATLYRNKGEERLLDLSCGTIPYAAPELCAGKKYRGPPVDVWSSGIVLIAMLTGELPWDRASDASQSYMGWISNTSLDERPWKKIDVRALCMLRKIVTDKTDKRATIEQIQADPWYQHNFGQVETPNGRPLKRARNNDENITCTQQAECSAKRRHLETPNEKSTLAERQNASFSQPTKTEDLLLTQHIDMSQTNSNLLQRMVCRMTRFCVVTDIRSTYQKVARASEHAGFGVRETDDYRLLVTWREVSMMVSLYTMGDIPDKPRVMVDFRRSRGDGIQFKKMFMDVRNRMHEWICTDGNNWLANLGYVPRNPQIVNGGGVNVEHSASSINVDV	not soluble
MGHHHHHHSHMLVDNLYRVVSNQKDAAVIRVHLEVNASHEIFKGHFPEVPVLPGVCMVQCIKELIEESLLVKTQIDKGDMIKFLSMLNPVESNSIQAEISIKEKTETRIVFQATLKNEDRFLLKYSGSLVVLN	not soluble
MASYTLRQLKYFVTTVECGSVAEASRKLYIAQPSISTAVKGLEESFGVQLFIRHHAQGVSLTPAGARFYRKAQELLRMAHEFEQNALADNDVIAGQIDIGCFETVAPLYLPGLIAGFRQAYPGVEIRIRDGEQQELVQGLTSGRFDLAFLYEHDLDSTIETEPLMPPQRPHALLPEGHRFAGQAQVSLRDLCLEPMILLDVQPSRTYFVSLFEELGLTPNIAFSSPSIEMVRGMVGQGFGFSLLVTRPHSECTYDGKKVVMVDLAEPVSTSGLAAAWLKRAQLTKPARLFVDYCREQLGKLAERRH	soluble
MSLAFRTLSFGIKRSQPKKKDADDLNKKKELSTITEESLRRYDELREKMIGKVESKIEKKVKKNKKKASIEILASRKRVHDSDGDSENEVEETVGDVEKRMQKLLDDIRRTNRIFTWGDHLPNIILRFSDSSMSPSLLNRLSENSIRQPSPIQMQSIPFMTERRNVLASAPTGSGKTLAFALPVIDEILELKQRADYSSSNSSKLLAVVLEPTRELAAQTYTEFLKYCANTSISAANFSGEETDIQHADILVSTPNRIVFHLDKIDTSSLRWLVVDESDRLFEVVEGQDKCFRNQLAAIYKACDAKCTRVAFFSATFSHEVEKWCKENIDEIGMVCVGERNSSNTSVKQKLTYCGTEDGKKIAIRNLLRTSFKPPALVFVQSKDRAVQLVKLLSAIDSNLKVDSINSGKSDKERDETMERFRRGEIWVLVCTELLGRGLDLSDVGLVINYDLPTSIVSYIHRVGRTGRAGKSGHAVTYFTDADMKYIKSIATVIRQSGFDVPEYLMEMKKVSRDRKKDMLKHAPKRHKIAIVKEQVIKKKKMLAKAAAEEKAKNKTETQTAEKPEKKIKKKKLIKKNNKNI	not soluble
MSKTVTIRRPSPTKTSEEPAAHQTPIFTQTAAEMLGITSLNTEAAELLEFLSREKLKEIVRLSAKWTQKSARRRMAVADVEHAIRSTRQCGGLNISSVDTLNLGIQQLQPIQGTSTGIYSFLKSSADVDVDKEDTETFIKIPRDLRVISYPLVNEGQPVQSEYTVNVDEDDGNFFEKIVPEVMTMIPEKNTPSSSTTSSLQMFRDAVKTAKIDQKVGLKPSTIEILTVEQQIFMKDIITVCMGQDDKKRHEALYTLETDAGLQVFLPHLTERICKSISANISQRCLSLIIYAGRVLRSLSHNKACDMTVTLHHVLPALLSCCVGRNMCLRPETDNHWALRDFSAKTLVGLVRDQVDKHDAGRTARRLFDFSHRIFRDTGSSFSMIYGTVHILQEFVAGPKKAAWLLTELGETNARCKSHIESGSRIGASQLSIQEAQKLNQQILKCENSIRNRYNLQQQAPGVPINRRFH	not soluble
MGSDKIHHHHHHMNILVTGGAGFIGSHVVDKLIENGYGVIVVDNLSSGKVENLNRNALFYEQSIEDEEMMERIFSLHRPEYVFHLAAQASVAISVREPARDAKTNIIGSLVLLEKSIKYGVKKFIFSSTGGAIYGENVKVFPTPETEIPHPISPYGIAKYSTEMYLEFFAREYGLKYTVLRYANVYGPRQDPYGEAGVVAIFTERMLRGEEVHIFGDGEYVRDYVYVDDVVRANLLAMEKGDNEVFNIGTGRGTTVNQLFKLLKEITGYDKEPVYKPPRKGDVRKSILDYTKAKEKLGWEPKVSLEEGLKLTVEYFRKTLE	not soluble
GPGSMADEEDYDFEVNKKETDKIERPERLIEVLQHDTNQTLTEEMVEHAQAVLDFMPVEYTYKDVAAKLKCRLDGAYGGTWHVIVGKHFGANVTNDDDTLINMKINGVYFLAMRSGPPERPQESAENEAVTAE	soluble
MISKGFSTQTERINILKAQILNAKPCVESERAILITESFKQTEGQPAILRRALALKHILENIPITIRDQELIVGSLTKEPRSSQVFPEFSNKWLQDELDRLNKRTGDAFQISEESKEKLKDVFEYWNGKTTSELATSYMTEETREAVNCDVFTVGNYYYNGVGHVSVDYGKVLRVGFNGIINEAKEQLEKNRSIDPDFIKKEKFLNSVIISCEAAITYVNRYAKKAKEIADNTSDAKRKAELNEIAKICSKVSGEGAKSFYEACQLFWFIHAIINIESNGHSISPARFDQYMYPYYENDKNITDKFAQELIDCIWIKLNDINKVRDEISTKHFGGYPMYQNLIVGGQNSEGKDATNKVSYMALEAAVHVKLPQPSLSVRIWNKTPDEFLLRAAELTREGLGLPAYYNDEVIIPALVSRGLTLEDARDYGIIGCVEPQKPGKTEGWHDSAFFNLARIVELTINSGFDKNKQIGPKTQNFEEMKSFDEFMKAYKAQMEYFVKHMCCADNCIDIAHAERAPLPFLSSMVDNCIGKGKSLQDGGAEYNFSGPQGVGVANIGDSLVAVKKIVFDENKITPSELKKTLNNDFKNSEEIQALLKNAPKFGNDIDEVDNLAREGALVYCREVNKYTNPRGGNFQPGLYPSSINVYFGSLTGATPDGRKSGQPLADGVSPSRGCDVSGPTAACNSVSKLDHFIASNGTLFNQKFHPSALKGDNGLMNLSSLIRSYFDQKGFHVQFNVIDKKILLAAQKNPEKYQDLIVRVAGYSAQFISLDKSIQNDIIARTEHVM	soluble
